Here are results for one molecule from patent US20130129763A1 (ARNE FORSGREN, published 2013).

Assay [1] has as its target T1, Engelbreth-Holm-Swarm mouse sarcoma laminin (Sigma) (mouse, UniProt P19137 25-3083; P02469 22-1786; P02468 34-1607).
T1 construct: also called soluble laminin
Nature of the assay: ELISA: 40 nM UspA1 50-770 coated, soluble laminin titrated in three-fold steps 0.03-60 µg/ml, rabbit anti-laminin pAb + HRP anti-rabbit pAb. (In general: ELISA stands for enzyme-linked immunosorbent assay.)

Assay [2] deals with T2, methylamine-treated C3 (C3met) (human, UniProt P01024 23-667; P01024 672-1663).
T2 construct: mature; also called C3b-like molecule; [125I]-C3met
Nature of the assay: SPR (Biacore 2000), UspA protein amine-coupled on CM5 chip, C3met injected, steady state affinity model; UspA1^50-770 on the chip.

T2 sequence (P01024 23-667 limits assumed, chain 1 of 2): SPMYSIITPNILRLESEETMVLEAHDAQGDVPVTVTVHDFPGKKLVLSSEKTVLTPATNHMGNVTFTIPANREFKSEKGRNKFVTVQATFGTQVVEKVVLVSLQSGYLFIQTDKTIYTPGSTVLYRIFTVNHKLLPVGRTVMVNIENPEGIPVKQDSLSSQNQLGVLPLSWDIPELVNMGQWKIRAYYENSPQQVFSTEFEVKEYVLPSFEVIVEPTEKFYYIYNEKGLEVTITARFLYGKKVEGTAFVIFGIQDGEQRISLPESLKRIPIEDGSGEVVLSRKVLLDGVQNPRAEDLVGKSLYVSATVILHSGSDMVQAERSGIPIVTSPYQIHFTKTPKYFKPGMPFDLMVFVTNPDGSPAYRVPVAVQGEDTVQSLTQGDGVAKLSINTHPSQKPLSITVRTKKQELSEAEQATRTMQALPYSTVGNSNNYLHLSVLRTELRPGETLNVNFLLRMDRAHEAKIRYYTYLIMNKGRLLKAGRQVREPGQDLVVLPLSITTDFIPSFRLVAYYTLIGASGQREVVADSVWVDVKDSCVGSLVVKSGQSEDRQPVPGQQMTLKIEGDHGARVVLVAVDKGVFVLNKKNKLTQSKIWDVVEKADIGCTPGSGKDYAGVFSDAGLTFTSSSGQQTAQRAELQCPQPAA
T2 sequence (P01024 672-1663 limits assumed, chain 2 of 2): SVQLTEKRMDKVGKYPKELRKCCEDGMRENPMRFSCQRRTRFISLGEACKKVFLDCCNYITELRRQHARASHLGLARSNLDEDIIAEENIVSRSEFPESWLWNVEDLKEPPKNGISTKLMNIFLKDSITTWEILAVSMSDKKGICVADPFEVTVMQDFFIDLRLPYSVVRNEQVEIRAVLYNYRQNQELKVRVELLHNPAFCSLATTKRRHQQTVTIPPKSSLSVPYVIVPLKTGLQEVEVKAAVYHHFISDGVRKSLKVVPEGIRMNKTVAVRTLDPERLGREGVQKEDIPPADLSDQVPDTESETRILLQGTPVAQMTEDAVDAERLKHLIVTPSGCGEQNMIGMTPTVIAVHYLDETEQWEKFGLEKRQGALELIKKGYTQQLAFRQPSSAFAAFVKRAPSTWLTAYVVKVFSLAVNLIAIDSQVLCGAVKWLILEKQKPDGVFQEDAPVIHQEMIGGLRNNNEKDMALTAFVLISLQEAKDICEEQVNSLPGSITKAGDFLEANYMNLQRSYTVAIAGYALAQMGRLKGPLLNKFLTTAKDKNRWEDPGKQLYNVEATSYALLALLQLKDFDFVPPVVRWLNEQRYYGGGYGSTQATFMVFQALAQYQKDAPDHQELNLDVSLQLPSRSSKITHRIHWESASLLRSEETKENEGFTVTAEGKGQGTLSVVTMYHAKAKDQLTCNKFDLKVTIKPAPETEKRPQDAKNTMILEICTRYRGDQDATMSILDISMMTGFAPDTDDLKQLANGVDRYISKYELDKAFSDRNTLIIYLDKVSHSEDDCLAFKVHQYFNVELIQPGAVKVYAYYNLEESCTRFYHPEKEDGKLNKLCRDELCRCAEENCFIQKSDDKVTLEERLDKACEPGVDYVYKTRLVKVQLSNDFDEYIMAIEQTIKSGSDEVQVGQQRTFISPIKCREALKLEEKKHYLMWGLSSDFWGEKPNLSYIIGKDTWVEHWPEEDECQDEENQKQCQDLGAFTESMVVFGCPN

B1: recombinant UspA1^50-770 (M. catarrhalis Bc5) (other)
chain: KVGKATNKISGGDNNTANGTYLTIGGGDYNKTKGRYSTIGGGLFNEATNEYSTIGSGGYNKAKGRYSTIGGGGYNEATNQYSTIGGGDNNTAKGRYSTIGGGGYNEATIENSTVGGGGYNQAKGRNSTVAGGYNNEATGTDSTIAGGRKNQATGKGSFAAGIDNKANADNAVALGNKNTIEGENSVAIGSNNTVKKGQQNVFILGSNTDTTNAQNGSVLLGHNTAGKAATIVNSAEVGGLSLTGFAGASKTGNGTVSVGKKGKERQIVHVGAGEISDTSTDAVNGSQLHVLATVVAQNKADIKDLDDEVGLLGEEINSLEGEIFNNQDAIAKNQADIKTLESNVEEGLLDLSGRLLDQKADIDNNINNIYELAQQQDQHSSDIKTLKNNVEEGLLDLSGRLIDQKADLTKDIKALESNVEEGLLDLSGRLIDQKADIAKNQADIAQNQTDIQDLAAYNELQDAYAKQQTEAIDALNKASSANTDRIATAELGIAENKKDAQIAKAQANENKDGIAKNQADIQLHDKKITNLGILHSMVARAVGNNTQGVATNKADIAKNQADIANNIKNIYELAQQQDQHSSDIKTLAKVSAANTDRIAKNKAEADASFETLTKNQNTLIEQGEALVEQNKAINQELEGFAAHADVQDKQILQNQADITTNKTAIEQNINRTVANGFEIEKNKAGIATNKQELILQNDRLNRINETNNHQDQKIDQLGYAL
notes: also called UspA1^56-770 [sic]; UspA1^50-7"
For the molecule B1, in assay [1], the binding result was “binds”. Also, the Kd in assay [2] was found to be 14 µM.

What is called Kd is the free concentration of one partner at which half of the binding sites on the other are occupied at equilibrium, for simple one-to-one binding. A higher Kd goes with weaker binding.
